For this series the following is noted: Halorhodospira halophila, Thermal, DSC, reversible: yes, whole UniProt chain shown.

B1: High-potential iron-sulfur protein isozyme 1 wild type, P04168 (protein)
chain: EPRAEDGHAHDYVNEAADASGHPRYQEGQLCENCAFWGEAVQDGWGRCTHPDFDEVLVKAEGWCSVYAPAS
Regarding B1, the Tm reads like this: (pH 7, MOPS 20 mM) 67.7 °C; (pH 9, TAPS 20 mM) 66.4 °C; (pH 10, CAPS 20 mM) 66.5 °C; (pH 11, piperidine 40 mM) 50.3 °C.

For the origin of these results see FireProtDB (doi:10.1002/pro.5560041213).
